# Laboratory results published in US6740496B1, “Determination of biologically active forms of proteolytic enzymes” (Synapse B.V., priority 1999, dated 2004).
# How the values were obtained:
# Assay type in all cases: biochemical
# [1] = biological target: T1, human α2M-IIa (Homo sapiens, UniProt P00734); experiment: Amidolytic activity of human α2M-IIa towards OA-S2288 (pNA release, OD 405 nm)
# T1 construct: The formation of thrombin in clotting blood or plasma arises from prothrombin by an enzymatic controlled reaction
# Procedure: (§1) The amidolytic activity of human thrombin and human α2M-IIa towards OA-S2288 was measured. The reaction mixtures contained 22 μM OA-S2288, 50 nM thrombin or α2M-IIa and 175 mM NaCl, 50 mM Tris-HCl, 2 mg/ml ovalbumin (pH 7.9).
# (§2) In FIG. 2 the amount of free p-nitroanilide (pNA) formed, expressed as milli optical density at 405 nm, is plotted against the time. The reaction temperature was 37° C. The grey curves are the measured data, whereas the black line is obtained by fitting, assuming that product formation occurs according to Michaelis-Menten kinetics.
# (§3) Product formation in time can be described as: E.kcat. St/(Km+St), in which St is the substrate concentration in time (i.e. the substrate concentration originally present (S0) minus the formed product or split substrate, and E is the enzyme that splits the substrate, either thrombin or α2M-IIa.
# [2] = biological target: T2, human thrombin (Homo sapiens, UniProt P00734); experiment: Amidolytic activity of human thrombin towards OA-S2288 (pNA release, OD 405 nm); details: Michaelis-Menten fit
# T2 construct: The formation of thrombin in clotting blood or plasma arises from prothrombin by an enzymatic controlled reaction
# Procedure: as §1, §2, §3
# [3] = biological target: T2, human thrombin; experiment: Hydrolysis of OA-AR-AMC by free thrombin (AMC fluorescence); details: 5.5 μM OA-AR-AMC, 85 nM human thrombin, 25° C., pH 8.0, Michaelis-Menten fit
# Procedure: (§4) The assay was carried out at 25° C. in 96 well Microfluor W “U” bottomed micro titre plates (Dynex, London, UK) in 10 mM HEPES, 5 mM CaCl2, 0.02% sodium azide, pH 8.0). In case of -∘- the vessel contained 5.5 μM OA-AR-AMC (Ala-Arg-AMC coupled to ovalbumin) and 85 nM human thrombin and in case of -∇-5.5 μM OA-AR-AMC and 65 μM human α2M-IIa. The black symbols (-●- and -▾-) were obtained by fitting assuming that the substrate is hydrolysed by thrombin according to Michaelis-Menten kinetics. […] For hydrolysis by α2M-IIa the already derived S0 and Km were found and kcat=0.008 s^−1.
# [4] = biological target: T1, human α2M-IIa; experiment: Hydrolysis of OA-AR-AMC by thrombin inactivated by α2M (AMC fluorescence)
# Procedure: as §4
Substance,"kcat ([1]; E is α2M-IIa, 22 μM OA-S2288, 50 nM enzyme, 37° C., Michaelis-Menten fit) [s⁻¹]",hydrolysis by α2M-IIa (in words) ([1]; ovalbumin coupled to S2288),"Km ([2]; 22 μM OA-S2288, 50 nM thrombin, pH 7.9, 37° C.) [µM]","kcat ([2]; E is thrombin, 22 μM OA-S2288, 50 nM enzyme, 37° C.) [s⁻¹]",Km [3] [µM],kcat [3] [s⁻¹],"kcat ([4]; 5.5 μM OA-AR-AMC, 65 μM human α2M-IIa, 25° C., pH 8.0, Michaelis-Menten fit) [s⁻¹]","Km ([4]; hydrolysis by α2M-IIa, the already derived S0 and Km) [µM]",hydrolysis by thrombin entrapped in α2M (in words) ([4]; ovalbumin coupled to Ala-Arg-AMC)
ovalbumin coupled to H-D-isoleucyl-L-prolyl-L-arginine-p-nitroanilide.2HCl [OA-S2288],0.002,"loses its ability to be hydrolysed by α2M-IIa, but not by thrombin",1.47,0.31,,,,,
ovalbumin coupled to H-alanyl-L-arginine-7-amido-4-methyl-coumarin [OA-AR-AMC],,,,,1.2,3.3,0.008,1.2,will not be split anymore by thrombin entrapped in the cavity of α2M
